Here are results for 1 molecule from patent US20090092544A1.

Assay [1] concerns the target ROBO1 expressed on ROBO1-expressing HEK293 cells (ROBO1/pcDNA3.1, C-terminal V5 tag) (human) (UniProt Q9Y6N7). Briefly: FACS on ROBO1-expressing HEK293 cells, signal intensity digitized.
For assay [2] the target is unchanged. In words: cell-based or functional assay.

UniProt Q9Y6N7, sequence (Q9Y6N7 26-1651): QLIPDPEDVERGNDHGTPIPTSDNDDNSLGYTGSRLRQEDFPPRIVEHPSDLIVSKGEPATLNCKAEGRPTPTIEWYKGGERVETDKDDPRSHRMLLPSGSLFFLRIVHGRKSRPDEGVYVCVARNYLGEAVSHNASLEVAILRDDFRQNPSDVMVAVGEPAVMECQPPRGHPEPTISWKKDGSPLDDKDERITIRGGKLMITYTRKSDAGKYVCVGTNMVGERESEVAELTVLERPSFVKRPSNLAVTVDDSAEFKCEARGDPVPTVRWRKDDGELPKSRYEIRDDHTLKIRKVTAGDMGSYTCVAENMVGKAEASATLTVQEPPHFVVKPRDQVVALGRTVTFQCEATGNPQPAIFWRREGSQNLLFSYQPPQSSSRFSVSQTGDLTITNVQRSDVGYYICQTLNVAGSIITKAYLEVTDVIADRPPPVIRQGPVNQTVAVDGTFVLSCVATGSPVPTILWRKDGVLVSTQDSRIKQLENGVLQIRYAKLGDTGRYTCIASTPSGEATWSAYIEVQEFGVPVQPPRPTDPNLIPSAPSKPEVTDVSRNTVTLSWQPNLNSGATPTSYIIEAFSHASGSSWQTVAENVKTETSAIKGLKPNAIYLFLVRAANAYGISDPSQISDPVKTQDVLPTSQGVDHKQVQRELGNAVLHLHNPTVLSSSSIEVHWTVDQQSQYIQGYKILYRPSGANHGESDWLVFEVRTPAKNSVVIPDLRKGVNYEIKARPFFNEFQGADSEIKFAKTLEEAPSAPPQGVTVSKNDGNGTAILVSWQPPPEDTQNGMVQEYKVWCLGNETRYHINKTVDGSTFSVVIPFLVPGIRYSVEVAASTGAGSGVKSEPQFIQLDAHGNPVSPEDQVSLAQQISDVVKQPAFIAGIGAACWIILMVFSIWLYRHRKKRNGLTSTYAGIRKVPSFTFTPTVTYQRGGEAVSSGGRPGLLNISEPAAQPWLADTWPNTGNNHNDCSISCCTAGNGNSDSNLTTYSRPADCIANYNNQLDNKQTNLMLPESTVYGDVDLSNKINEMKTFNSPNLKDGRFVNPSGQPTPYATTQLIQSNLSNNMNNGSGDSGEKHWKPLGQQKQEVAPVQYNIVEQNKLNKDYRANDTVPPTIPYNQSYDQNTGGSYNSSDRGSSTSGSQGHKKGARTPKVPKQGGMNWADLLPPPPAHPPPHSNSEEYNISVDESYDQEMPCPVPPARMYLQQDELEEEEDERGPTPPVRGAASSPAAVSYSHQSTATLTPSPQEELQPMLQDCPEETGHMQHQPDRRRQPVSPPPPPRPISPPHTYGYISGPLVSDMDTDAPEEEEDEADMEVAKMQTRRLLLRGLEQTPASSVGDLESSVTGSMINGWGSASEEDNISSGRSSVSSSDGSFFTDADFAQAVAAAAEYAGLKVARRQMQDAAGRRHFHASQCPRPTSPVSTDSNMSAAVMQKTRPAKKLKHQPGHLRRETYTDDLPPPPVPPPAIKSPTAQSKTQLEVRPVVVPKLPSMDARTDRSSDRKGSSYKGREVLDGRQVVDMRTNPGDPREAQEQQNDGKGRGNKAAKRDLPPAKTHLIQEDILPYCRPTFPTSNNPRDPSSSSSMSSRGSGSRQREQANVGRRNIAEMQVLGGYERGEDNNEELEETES

B1: B5209B (antibody, from another filing, mouse IgG2b)
scFv: MAEVQLVESGGGVVQPGGSLKLSCAASGFTFSTYDMSWVRQTPDKRLELVATINSNGGSTYYPDSVKGRFTSSRDNAKNILYLQMSSLKSEDTAMYYCAREALLRPPYYALDYWGQGTSVTVSSAGGGGSGGGGSGGGGSGGGGSDILDIQMTQSPASLSASVGETVTITCGASENIYGALTWYQRKQGKSPQLLIYGAINLADDKSSRFSGSGSGRQYSLKISSLHPDDVATYYCQNVLSTPFTFGSGTKLEIKAAGHHHHHH
By EC50 is commonly meant the concentration that produces a half-maximal response. A higher EC50 goes with weaker potency. As to B1, the concentration giving a half-maximal response (EC50) in assay [1] amounted to 3.1 nM. This molecule also returned a CDC (%), measured value at 0.1 ug/mL in assay [2] of 87.2%.
